± gives the uncertainty stated by the source.

The nature of this data set: amyloid nucleation score (Sup35N fusion, yeast selection) (log enrichment); library NNK1; higher = more nucleation; inactive = no reads after selection. Summed up: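 Growth for 7 days at 30°C on medium lacking adenine and uracil followed a 24-hour induction with 100 μM copper sulfate of psi-negative yeast expressing peptides of 20 random codons fused to Sup35N. Input and output plasmid inserts were sequenced with Illumina, and sequences with under 100 input reads were excluded. Nucleation score is the DiMSum log enrichment of output over input reads, centred on the mode score of non-aggregating sequences.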
In turn, RQQMTRTCVNDGS yielded an amyloid nucleation score of -1.02 ± 2.4.

In the case of DKLVYLHWPIYNVSVLCCRG, the amyloid nucleation score was 5.14 ± 0.095.

The substance HLSWLRINLPGSPHPPMSLP came in with an amyloid nucleation score of 3.57 ± 0.11. Under MMGGSRWTCCYTFDFWSCWD stands 4.27 ± 0.1; under QTSIWFGDYYRKLSLCWHRP, 3.63 ± 0.097; under NPKSFNGCVFRLGGVPYFVS, 0.076 ± 0.36.

CIYSICYFCNS: the amyloid nucleation score was 7.924 ± 0.043. Take GFELVNVVGVIASLYNIIIV: the amyloid nucleation score stood at 2.92 ± 0.2. ILELYYYASRFLN yielded an amyloid nucleation score of 0.45 ± 0.57.

In the case of GAFGFITNRKRINCKLEDRD, the amyloid nucleation score was -1.32 ± 2.4. Under RSSVVWLWSHYC stands 0.588 ± 0.56; under KSLQRWRDRCRDHVLSAS, -0.083 ± 1.

For the substance EENLSSPWMPMVPIDTINWF, the amyloid nucleation score was found to be 1.67 ± 0.52.

Substance YAKHFPVLRTCLLNSVWGQG displayed an amyloid nucleation score of 1.33 ± 0.57. In turn, AESSPSVG yielded an amyloid nucleation score of 0.271 ± 0.57. On to LFDNFIAHMGCSRIPYDSHS, for which the amyloid nucleation score is -0.086 ± 0.3.

The substance IHNFIVSRDRMTGENGSGCM returned an amyloid nucleation score of -0.944 ± 0.41. In turn, TICNMSRWYDMKNYGEKMEV showed an amyloid nucleation score of 1.21 ± 0.6. TSYLLCMEQYYLKEISCRDS returned an amyloid nucleation score of 0.688 ± 0.38. Under HYWDYAISRIR stands -1.94 ± 2.4; under SYWKNTVSCYVFFGMSRSRT, -0.634 ± 1.4; under LRDTRAWVLN, -0.295 ± 0.43.

Substance IRGVKSYLSLITLFSKTHLV yielded an amyloid nucleation score of -0.833 ± 0.39. The substance GRRRSDQASTVRRSLCEGMA showed an amyloid nucleation score of 0.451 ± 0.67. TNFCGVNPGRIIRLWEDRSW came in with an amyloid nucleation score of -0.762 ± 0.45. Under GSDMIVYIYRCTVTLMGSST stands 3.83 ± 0.099; under LYHSTLYLNVCYTYHSAGGN, 1.24 ± 0.21. Under GLVTRMSQTHPVSYNHITIL stands -0.072 ± 0.28; under IRGYGAWGQWGSYRFRESES, 1.6 ± 0.17. Turning to RTNVWVAFVDSRSHGQFCQK, the amyloid nucleation score was found to be 3.68 ± 0.18. Consider RPGVNLWVLFVTMQTPEIRL, for which the amyloid nucleation score amounted to 3.01 ± 0.11. YRPNLLNSLTPTKTSIGSVY displayed an amyloid nucleation score of 1.11 ± 0.6. For LALPIFAFER the value was -0.839 ± 0.46.

SVDLVMEYSCDGNTLDFRSL: the amyloid nucleation score came out at 0.157 ± 1.4. For SFHLSQFYKNTHMWLIVFES, the amyloid nucleation score result was “inactive”. In turn, GTCYFTDQR gave an amyloid nucleation score of 0.491 ± 0.37.

DGLICVPVKLYVNIGKTFTW yielded an amyloid nucleation score of 0.847 ± 0.41. VVLEHVDYHS registered an amyloid nucleation score of 0.822 ± 0.52. For GDSRTLGLLCFYMKVG the value was -0.352 ± 0.41.

As to VFSLYSTQKLSRRVIGMLGL, the amyloid nucleation score was determined as 0.725 ± 0.81. For RQNGRKDPGNVKRGITCR the value was 0.066 ± 0.38. With WYWELGLALKRWRYAANFGS, the amyloid nucleation score is -0.19 ± 0.96. Under AIYMLHRNGGGGVCEAEAVR stands -0.38 ± 0.69. For VLMMVLGRWDTSSVMFIMMV the value was 0.343 ± 0.97.

GYIGICGNKYYFPVDRYRAC: the amyloid nucleation score was 1.28 ± 0.57.

Regarding HVKACLVVASYP, the amyloid nucleation score was 0.94 ± 0.5. SRPSQCYINAFMFSMFKSGN: the amyloid nucleation score result is “inactive”.

Consider KRLLFKYRSVNRHTYLFIPV, for which the amyloid nucleation score is -0.616 ± 0.28.

LVCDQLLIITLKCDERHQVT: the amyloid nucleation score is 7.474 ± 0.074. With RVFSSFGFMKRRPVWTVWIT, the amyloid nucleation score is -0.324 ± 0.81. Under HGAFMVPT stands 0.895 ± 0.79; under MSNMHNYLRLIWDTVCIQF, -0.083 ± 0.77; under GQICAWPITMVWAAGR, -0.391 ± 1.5. For NIGNVMRSCSKVYSLSLKQL the value was 0.585 ± 0.31. For LEGVFAAALSNKMIRYIRDV the value was 1.19 ± 0.53. As for ICYTLTMVMAGVEAGGATLV, the amyloid nucleation score is 0.294 ± 0.95.

With IRQTVVLGL, the amyloid nucleation score is -0.732 ± 0.7. In the case of SGIPSVLATGYSYKF, the amyloid nucleation score is -0.273 ± 0.29.

As for SGHGFLRQ, the amyloid nucleation score entry was “inactive”.

MQWWVGYAIITEN showed an amyloid nucleation score of -0.119 ± 0.56. In turn, EVHRFRVKKEGGDQ came in with an amyloid nucleation score of 0.869 ± 0.57.

Substance RFQGGWSRF yielded an amyloid nucleation score of 3.68 ± 0.11. Consider AAVGALGKSRSL, for which the amyloid nucleation score worked out at 1.17 ± 0.73. In turn, KFVYEGSGHQVILYVTLMGY showed an amyloid nucleation score of -1.59 ± 0.84. Under GFFHGHIGLQHMCELQCCSG stands “inactive”. Turning to VSCSDSMAFPSKSCF, the amyloid nucleation score was 0.712 ± 0.34. Under MWTRHCN stands 0.483 ± 0.55; under MRNIVWCCSVVLCCLFGVLF, 0.385 ± 0.69. Under VGLNMLKNFNPDLSAKDITH stands -0.176 ± 1.1; under VCESVNNAHAAYSAVLSVQM, -0.347 ± 0.54; under LSSLGDLLLMNQPNAQRLTY, -0.746 ± 1. Under TWTCDSVCCVRNKEVCGVYQ stands 0.033 ± 0.23. In turn, DVDGEVRVLDFV returned an amyloid nucleation score of -0.24 ± 0.45.

For the substance MLTNVSNICYWNDVVGDSLA, the amyloid nucleation score was 0.838 ± 0.28. On to FGMSCRVELDSDRARTTPWP, for which the amyloid nucleation score is 0.181 ± 0.64. For CMMSNRTCQAQLVMMWEMW the value was “inactive”. LQFNMVYVCYGWSSVYARSG came in with an amyloid nucleation score of 0.409 ± 0.28. The substance FNYYITFHCTCELECRGYCT showed an amyloid nucleation score of 7.841 ± 0.05. ISWFRCLEVWPSYGIPDWKN: the amyloid nucleation score is -0.467 ± 0.28.

Substance MVSIWINFT gave an amyloid nucleation score of 6.38 ± 0.08. For AGRIETIEIGSSCLSVCGGY the value was 0.328 ± 0.58; for YWCMLARSLDDEGLFWRTGG, -0.38 ± 0.33; for GHQILDSCLANCYGGCLIAC, 0.652 ± 0.61. CGYLCNGKSGERSGIFGAHQ returned an amyloid nucleation score of -0.088 ± 0.39.

On to PCLLCVYCMFL, for which the amyloid nucleation score came out at 4.53 ± 0.055.

As to SVDLFSCRRIRLTLLEVFVT, the amyloid nucleation score is -0.028 ± 0.41. With TSELFYGTCGKGCPERVGGQ, the amyloid nucleation score was -0.266 ± 1.6.

In turn, SQYDWLKLFSNVY gave an amyloid nucleation score of -0.175 ± 0.21. Under FFVFSRAHCAQSSLNKKYL stands 0.888 ± 0.3. As to QGSDASVGTAVGSTWEVCCC, the amyloid nucleation score was -0.334 ± 0.36.

On to CPNIEKPSLLST, for which the amyloid nucleation score was -2.01 ± 2.4. For RLKHDWWITVCLYRVQLNTV the value was 1.59 ± 0.55. For ICSIITPRPGFPTVLRSMKK the value was 0.846 ± 0.81; for VGFGQSHGVFRCGVMRLRRG, 0.192 ± 1.1.

Substance RYGPAVLKSSGAAAVGHS yielded an amyloid nucleation score of -0.59 ± 0.59. As to NSYRFSLFQ, the amyloid nucleation score was found to be 1.32 ± 0.46. Under REVSMRDGGPVT stands 0.298 ± 0.54; under FYCMLSSSSNFPSGNDRAYD, -0.341 ± 0.5.

Substance MWSYNLYNLVVTS yielded an amyloid nucleation score of 1.1 ± 0.28. Under FCNNATSTQGNVFSGLLWTL stands -0.202 ± 0.27; under DSSCADR, 0.674 ± 0.41; under WSCKVMRVYRP, 0.295 ± 0.4. For LDGGIIRRILVIVKCWGRCC, the amyloid nucleation score came to 0.108 ± 0.2. KTMMIGFNNMWGGVQ yielded an amyloid nucleation score of 3.34 ± 0.21.

As to SDVKF, the amyloid nucleation score stood at 2.95 ± 0.11.

For the substance LRLRVTNVLILGSLGIDEMY, the amyloid nucleation score was 2.37 ± 0.28. SKLCVCGTASLLHYTVTERV: the amyloid nucleation score worked out at 5.29 ± 0.11. For SGTQKNRCTSLMQC the value was 0.709 ± 0.53; for SDRGSKPMSVYNLRC, 0.305 ± 0.75. On to SFSKYAGFARKWSMLRVASY, for which the amyloid nucleation score was -0.337 ± 1.2. Under YCHCRFFDNLGCECLLR stands -0.368 ± 1.9. For TLWVNIG the value was -1.44 ± 2.7; for QFTRLCMLRNTLFTVVENQA, 0.383 ± 0.65; for LVMYCWRTYVYLRTSRGYDA, 0.259 ± 0.61. For MFGFHRNRDDHSCIHFTFK the value was 2.58 ± 0.15; for GSGVGKLCGLCSPG, 0.274 ± 0.69. For the substance SHVPEVGVGSDAVFLANKGI, the amyloid nucleation score is -0.855 ± 0.69. Substance LALLWDMPF had an amyloid nucleation score of -2.19 ± 2.7. The substance GIRPEN came in with an amyloid nucleation score of -0.521 ± 0.49.

On to TLPDKRILLSANIMPALVCN, for which the amyloid nucleation score stood at 0.837 ± 0.31. Take LQCQN: the amyloid nucleation score stood at 0.702 ± 0.4.

FIEQGHYNHTGFGSYGWRF had an amyloid nucleation score of 0.972 ± 0.29. Regarding FDHSIVKKSQLRGFTVVLRL, the amyloid nucleation score is 1.22 ± 0.35. For SLPRPIMFSLVVIILYNFVR the value was -0.333 ± 0.47; for TLVSAVSCCLNAC, -0.269 ± 0.26; for MVAIRWYRMGLDDMNSGTVN, 0.094 ± 0.27. For HPGMTSAASVCWFHGRVLTL the value was 0.494 ± 0.51; for QDTRTLQGCRQWQRWITAEG, 0.678 ± 0.84; for NCSGCIWVRMCLNHFGVCTD, 2.38 ± 0.16.

In turn, SGGLNFLGLPVVFF displayed an amyloid nucleation score of 0.173 ± 0.92. As for VIVVVPLFGGRLCRVVRHR, the amyloid nucleation score was 0.278 ± 0.62.

Turning to LLTDRRDSSSRNDTLVRKGM, the amyloid nucleation score was 2.23 ± 0.091. Under PSYHGYLGLSNPVRYRMCV stands 0.197 ± 0.28. Turning to YVYDSVAVHGGKTLEGEGYG, the amyloid nucleation score came to 0.035 ± 0.38. For KLYWTYLTPGTNSGLQSPDS the value was -0.288 ± 0.62; for SNSSVSW, 0.717 ± 0.57. Under KGCAIGRRAINSCYQSGWIW stands 1.6 ± 0.57; under SKCCDSSRARVASSYS, 0.261 ± 0.36; under YRVNWFYMQRCAIP, -0.269 ± 0.86.

The values above are taken from the supplement of paper PMC12042874.
